Data published in the supplement of paper PMC10724198.
± gives the standard deviation of the averaged measurements.

Test system: Saccharomyces cerevisiae
Assay: protein stability index of tFT-peptide fusion (C-terminal peptide) (PSI (0-1 scale)); higher = more stable (slower turnover)
Conditions: genetic background: wild type; temperature: 30 C
Description: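 Multiplexed protein stability (MPS) profiling in S. cerevisiae. Random 12-aa peptides (tFT-X12 library) are fused to the C-terminus of a sfGFP-mCherry tandem fluorescent timer, after mCherry and a GGGS linker. Cells are FACS-sorted into 8 mCherry/sfGFP bins and deep-sequenced. The protein stability index (PSI) is the read-weighted bin average, scaled from 0 (unstable) to 1 (stable). Only peptides with >10 reads are reported; cells were grown at 30 °C in SC-His with glucose.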
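Further: PSI is a weighted mean of sequencing reads over stability bins, variants kept only with over 10 reads, mCherry proximal and sfGFP distal, peptide attached via GGGS linker.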

| Sequence | protein stability index |
| --- | --- |
| INPLAHCSISRS | 0.7086 ± 0.0066 |
| IPHHFSPPLPSP | 0.772 ± 0.082 |
| IPPLPSSIPRSF | 0.673 ± 0.022 |
| IPPLTKRPAPGG | 0.684 ± 0.099 |
| IPQTITLPHSNP | 0.694 ± 0.088 |
| IPSKHKPSRIPI | 0.665 ± 0.014 |
| IQARAVRRSAII | 0.627 ± 0.0012 |
| IQFKDKAVSETE | 0.658 ± 0.021 |
| IREFNLGTQIRY | 0.711 ± 0.035 |
| IRGCSGSDKNKS | 0.643 ± 0.047 |
| IRKEKREKKSSH | 0.702 ± 0.069 |
| IRKLDIIFLSES | 0.827 ± 0.063 |
| IRRPSVTAIRPS | 0.667 ± 0.08 |
| IRRRKRKRNQKP | 0.708 ± 0.032 |
| IRSLPYVGVFIE | 0.587 ± 0.036 |
| ISEINQKGKNRE | 0.675 ± 0.037 |
| ISFFLLYFPPSY | 0.59 ± 0.024 |
| ISKEIKKRLNRY | 0.63 ± 0.055 |
| ISLLIFSPTLFS | 0.687 ± 0.035 |
| ISLRAPVRPECV | 0.709 ± 0.031 |
| ISLVMLLKDAWR | 0.695 ± 0.019 |
| ISMPECDIVEEI | 0.707 ± 0.022 |
| ISPPAPTNLPTT | 0.696 ± 0.043 |
| ISSKREITGSVA | 0.694 ± 0.012 |
| ITALYVILTRRP | 0.6007 ± 0.0033 |

| Sequence | protein stability index |
| --- | --- |
| ITGLRNSRFNRP | 0.652 ± 0.0068 |
| ITHLFRSSIYSR | 0.683 ± 0.12 |
| ITNEQEMKRYDV | 0.667 ± 0.013 |
| ITRKKLEISVDK | 0.685 ± 0.04 |
| ITTKLRVTRLLR | 0.766 ± 0.13 |
| IVEERLFWKMWE | 0.659 ± 0.015 |
| IVFVLRPRRSRC | 0.65 ± 0.04 |
| IVNKRLKIRKKQ | 0.658 ± 0.045 |
| IVRENGKDVGVG | 0.506 ± 0.014 |
| IVRMLTCGVGWD | 0.581 ± 0.016 |
| IVSKESNVYIIK | 0.662 ± 0.053 |
| IVVLMEADLAGC | 0.583 ± 0.02 |
| IWLAFCTLRPVS | 0.591 ± 0.027 |
| IWLSCCPLAFWS | 0.6896 ± 0.0065 |
| IWRLLLPLPNPF | 0.688 ± 0.019 |
| IYRTYEAKPGHP | 0.69 ± 0.12 |
| IYRWSGTVGGER | 0.6971 ± 0.003 |
| IYVGAGCLGHTE | 0.717 ± 0.068 |
| KAGHEPRLTRKQ | 0.667 ± 0.022 |
| KAGVGAFLEPRS | 0.713 ± 0.064 |
| KAGVWLWVGGGG | 0.739 ± 0.015 |
| KCDLTREDVVHR | 0.657 ± 0.01 |
| KDDEQESESKNN | 0.667 ± 0.011 |
| KDEWVQSHTNQV | 0.671 ± 0.0083 |
| KDKEQKKIKKSI | 0.681 ± 0.13 |

| Sequence | protein stability index |
| --- | --- |
| KDKNPDARDDGG | 0.705 ± 0.04 |
| KDRKKYIMTKPS | 0.627 ± 0.051 |
| KDSSRHSPDPSR | 0.715 ± 0.086 |
| KEDKLLRSSEGF | 0.6886 ± 0.0029 |
| KEEGLKRAKGPQ | 0.642 ± 0.02 |
| KEELKKRRQEAK | 0.677 ± 0.012 |
| KEFFGGSTDFRV | 0.729 ± 0.18 |
| KEGKGRGDGGRE | 0.697 ± 0.018 |
| KEKGSRYKRALS | 0.679 ± 0.014 |
| KETQKKKQDKKK | 0.703 ± 0.0091 |
| KFARHVLIQSHV | 0.559 ± 0.04 |
| KFKREKKKINKR | 0.6938 ± 0.0023 |
| KFLISIWGGTRG | 0.6118 ± 0.0025 |
| KGANISDCLSIF | 0.616 ± 0.018 |
| KGDAQASSDLTL | 0.691 ± 0.014 |
| KGDWGGRGCGRH | 0.693 ± 0.021 |
| KGEKKNEEEERG | 0.68 ± 0.01 |
| KGETRLTSARLI | 0.706 ± 0.028 |
| KGETSYTGIAVG | 0.667 ± 0.085 |
| KGGGMWRCCVWR | 0.685 ± 0.0089 |
| KGGREARRERRD | 0.672 ± 0.036 |
| KGKTARDVLLLV | 0.58 ± 0.013 |
| KGQIVIDTKGGG | 0.609 ± 0.053 |
| KGSWTLGDGLVW | 0.644 ± 0.013 |
| KHPLAPLRRPVI | 0.68 ± 0.0078 |

| Sequence | protein stability index |
| --- | --- |
| KHYKVDAVNIRG | 0.686 ± 0.035 |
| KIDKKNKKKKRN | 0.728 ± 0.023 |
| KIDKKSKKKKEI | 0.684 ± 0.017 |
| KIDKNILTNKEN | 0.673 ± 0.056 |
| KIGYTISGFVIS | 0.707 ± 0.054 |
| KIIASVLYGVIG | 0.61 ± 0.037 |
| KIINKKKKRKKN | 0.665 ± 0.023 |
| KIKDKKNKQKKH | 0.709 ± 0.034 |
| KIKKLKKRNKSY | 0.612 ± 0.023 |
| KIKNKYKEKKKK | 0.67 ± 0.0079 |
| KIKQKEITEKNR | 0.638 ± 0.038 |
| KIRFGRCLRSSF | 0.746 ± 0.033 |
| KIRNLELNVQTN | 0.688 ± 0.075 |
| KITKKNRSWKTS | 0.623 ± 0.019 |
| KIYKKSKKKKEI | 0.688 ± 0.061 |
| KKDFTTKSKEYR | 0.7125 ± 0.0026 |
| KKDRRGGGPGGG | 0.691 ± 0.03 |
| KKEEIIIGGKKI | 0.663 ± 0.043 |
| KKEERTQKNEKK | 0.654 ± 0.011 |
| KKEKKKQKRNNN | 0.782 ± 0.013 |
| KKEKNQEKRKKE | 0.657 ± 0.021 |
| KKEKSQTKKQNI | 0.684 ± 0.12 |
| KKEKVKKKKGNN | 0.723 ± 0.013 |
| KKEKYIQIRTID | 0.627 ± 0.033 |
| KKEQKFKEDSDR | 0.677 ± 0.019 |

| Sequence | protein stability index |
| --- | --- |
| KKEQKSKTEMRK | 0.7124 ± 0.0037 |
| KKGKEKEVKKKK | 0.646 ± 0.074 |
| KKGKKRNKTAKQ | 0.628 ± 0.062 |
| KKGNKYNNKRKK | 0.69 ± 0.04 |
| KKGRTVEKKKGD | 0.694 ± 0.0039 |
| KKGSSKKKKPVE | 0.6581 ± 0.0062 |
| KKHTLNENKMKE | 0.652 ± 0.011 |
| KKICPDFGLLLV | 0.591 ± 0.004 |
| KKIEHRVLNELK | 0.6288 ± 0.00069 |
| KKIKKHEKKKNK | 0.721 ± 0.053 |
| KKIRKKLKKMKM | 0.644 ± 0.053 |
| KKITTDNKKNKI | 0.651 ± 0.067 |
| KKKEKKRKEEKN | 0.824 ± 0.052 |
| KKKIKNKTNEEK | 0.647 ± 0.038 |
| KKKKEEKNRQES | 0.7 ± 0.077 |
| KKKKIKKKTKKE | 0.667 ± 0.027 |
| KKKKKEQKTNQT | 0.697 ± 0.022 |
| KKKKKHTQYKRK | 0.6997 ± 0.0026 |
| KKKKKKKIRKKI | 0.682 ± 0.029 |
| KKKKKKKKDNKL | 0.781 ± 0.099 |
| KKKKKKKKHEQK | 0.678 ± 0.09 |
| KKKKKKKKKKRK | 0.685 ± 0.01 |
| KKKKKKKKKNKK | 0.679 ± 0.048 |
| KKKKKKKKTKKR | 0.637 ± 0.044 |
| KKKKKKKTQTNK | 0.692 ± 0.015 |

| Sequence | protein stability index |
| --- | --- |
| KKKKKKNKKKTQ | 0.734 ± 0.04 |
| KKKKKKQKKKIQ | 0.741 ± 0.05 |
| KKKKKNKKKTIK | 0.6886 ± 0.0046 |
| KKKKKNKKNKKY | 0.709 ± 0.038 |
| KKKKKNSRKKQQ | 0.7108 ± 0.0018 |
| KKKKKNTKVYNE | 0.703 ± 0.13 |
| KKKKKQIKKQKK | 0.586 ± 0.02 |
| KKKKKQKKKKRK | 0.682 ± 0.013 |
| KKKKKVKITGKK | 0.766 ± 0.018 |
| KKKKNKQKQIET | 0.759 ± 0.07 |
| KKKKQKKNKKKK | 0.6602 ± 0.0052 |
| KKKKSKIKKKRE | 0.665 ± 0.042 |
| KKKKTKKKEQKE | 0.693 ± 0.012 |
| KKKPKKQRKNKR | 0.684 ± 0.013 |
| KKKQKTIYRQKE | 0.64 ± 0.089 |
| KKKRKRKRSRRK | 0.639 ± 0.03 |
| KKKRTKKEREKK | 0.6612 ± 0.0032 |
| KKNKKNKKKKKN | 0.63 ± 0.082 |
| KKPVALVESRRV | 0.662 ± 0.055 |
| KKQKKKTKANKT | 0.673 ± 0.041 |
| KKREEKKEKRKR | 0.643 ± 0.054 |
| KKRGNYKTTESN | 0.687 ± 0.0076 |
| KKRILNRKKEER | 0.705 ± 0.052 |
| KKRMKKKTKNKN | 0.652 ± 0.019 |
| KKRNMRINSKKQ | 0.7 ± 0.022 |

| Sequence | protein stability index |
| --- | --- |
| KKRRNRIKKSAK | 0.689 ± 0.14 |
| KKRVSKETDKVK | 0.693 ± 0.027 |
| KKSKDKRNPKKK | 0.692 ± 0.028 |
| KKTKEQEGEKTE | 0.679 ± 0.026 |
| KKTKKKQQGKIQ | 0.702 ± 0.017 |
| KKTKNKKKQNGK | 0.6863 ± 0.0012 |
| KKTPKKKHKKKR | 0.679 ± 0.12 |
| KKYIEKKFNIQK | 0.664 ± 0.03 |
| KKYKKKKKRARY | 0.698 ± 0.019 |
| KLAHVKIKKTGK | 0.652 ± 0.018 |
| KLKIINENKLQN | 0.618 ± 0.087 |
| KMGGKRTKKIGQ | 0.694 ± 0.086 |
| KNADHPRKDEQP | 0.661 ± 0.095 |
| KNEESTKREGHF | 0.669 ± 0.063 |
| KNIKENIGDKNK | 0.646 ± 0.06 |
| KNKEISQIYIKN | 0.662 ± 0.027 |
| KNKIRLLNKTSK | 0.6717 ± 0.0014 |
| KNKKKNTIKKNK | 0.684 ± 0.018 |
| KNKREKKKENTK | 0.682 ± 0.0078 |
| KNKVTRNEKGIT | 0.639 ± 0.047 |
| KNNKKQRNRTGE | 0.669 ± 0.017 |
| KNNKSERIEKEQ | 0.701 ± 0.08 |
| KNNNREKLRQSM | 0.623 ± 0.056 |
| KNTKRQIKKNKK | 0.662 ± 0.17 |
| KNWRMKKDHKQA | 0.657 ± 0.024 |

| Sequence | protein stability index |
| --- | --- |
| KQERCCEEREEK | 0.729 ± 0.024 |
| KQHTEQIDRRTG | 0.6635 ± 0.0036 |
| KQKKAKKQKKKK | 0.69 ± 0.099 |
| KQKKKIKIQNKT | 0.689 ± 0.12 |
| KQKKNEENTKKT | 0.735 ± 0.064 |
| KQKKNKKKKQNR | 0.699 ± 0.036 |
| KQLEKYKDIRRK | 0.665 ± 0.061 |
| KQNKIIKKRKKK | 0.659 ± 0.067 |
| KQRGTRGNKANE | 0.6231 ± 0.0058 |
| KQRKIKKNIINH | 0.707 ± 0.015 |
| KQRKSESGSNTV | 0.686 ± 0.057 |
| KREARGERGKGE | 0.644 ± 0.04 |
| KRETKSKGQAQA | 0.602 ± 0.042 |
| KRGIHKLVNEVG | 0.683 ± 0.011 |
| KRGRRKLQRGRQ | 0.679 ± 0.028 |
| KRGVVGFGKGGG | 0.6654 ± 0.0027 |
| KRIDLDCSVAAD | 0.643 ± 0.022 |
| KRKAQEVNSKKK | 0.703 ± 0.011 |
| KRKENKKNKEKK | 0.669 ± 0.042 |
| KRKREKKLKKYK | 0.634 ± 0.037 |
| KRLKKKRNRAKA | 0.683 ± 0.031 |
